Laboratory results published in US20160002326A1 (AbbVie / Abbott, published 2016).
Substitutions are numbered along the chain they refer to. Numbers in names are those of the source.

Tests used:
[1] = biological target: T1, IL-17C (UniProt Q9P0M4 19-197); assay: direct ELISA
T1 sequence (looked up): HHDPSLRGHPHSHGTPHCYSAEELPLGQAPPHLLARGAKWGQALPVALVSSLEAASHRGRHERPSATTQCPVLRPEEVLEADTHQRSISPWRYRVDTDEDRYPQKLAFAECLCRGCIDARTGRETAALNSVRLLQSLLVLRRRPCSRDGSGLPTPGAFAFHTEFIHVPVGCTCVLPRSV

[2] = biological target: T2, TWEAK (UniProt O43508 94-249, limits assumed); assay: direct ELISA
T2 sequence (looked up): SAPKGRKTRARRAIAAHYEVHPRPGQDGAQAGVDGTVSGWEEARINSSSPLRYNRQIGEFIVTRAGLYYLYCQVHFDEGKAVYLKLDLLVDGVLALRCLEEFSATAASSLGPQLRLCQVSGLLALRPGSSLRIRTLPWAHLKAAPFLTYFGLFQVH

[3] = biological target: T3, EDA-A2 (UniProt Q92838-3 245-389, limits assumed); assay: direct ELISA
T3 sequence (looked up): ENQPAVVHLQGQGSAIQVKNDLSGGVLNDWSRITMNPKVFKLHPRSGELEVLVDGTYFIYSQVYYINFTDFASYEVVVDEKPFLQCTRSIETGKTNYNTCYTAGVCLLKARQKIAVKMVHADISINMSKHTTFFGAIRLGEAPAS

[4] = biological target: T4, CD40 ligand (UniProt P29965 113-261, limits assumed); assay: direct ELISA
T4 sequence (looked up): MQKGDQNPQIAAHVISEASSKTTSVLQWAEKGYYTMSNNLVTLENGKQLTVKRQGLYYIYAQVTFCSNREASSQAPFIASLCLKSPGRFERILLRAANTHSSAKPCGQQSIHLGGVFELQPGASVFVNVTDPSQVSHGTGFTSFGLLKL

[5] = biological target: T5, RANK ligand (UniProt O14788 140-317); assay: direct ELISA
T5 sequence (looked up): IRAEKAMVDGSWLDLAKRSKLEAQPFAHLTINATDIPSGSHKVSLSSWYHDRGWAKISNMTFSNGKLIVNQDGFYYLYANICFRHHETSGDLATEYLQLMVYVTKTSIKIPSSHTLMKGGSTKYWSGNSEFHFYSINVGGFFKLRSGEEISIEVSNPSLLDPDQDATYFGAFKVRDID

[6] = biological target: T6, OX40 ligand (UniProt P23510 51-183); assay: direct ELISA
T6 sequence (looked up): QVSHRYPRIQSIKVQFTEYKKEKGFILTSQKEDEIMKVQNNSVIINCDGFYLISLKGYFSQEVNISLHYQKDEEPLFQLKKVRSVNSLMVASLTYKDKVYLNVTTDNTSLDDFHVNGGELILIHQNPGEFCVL

[7] = biological target: T7, GITR ligand (UniProt Q9UNG2 52-177); assay: direct ELISA
T7 sequence (looked up): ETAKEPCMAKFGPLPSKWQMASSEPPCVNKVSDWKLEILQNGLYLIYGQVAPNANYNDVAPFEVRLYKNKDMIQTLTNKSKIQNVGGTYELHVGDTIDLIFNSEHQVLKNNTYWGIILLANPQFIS

[8] = biological target: LIGHT (UniProt O43557 74-240, limits assumed); assay: direct ELISA
[9] = biological target: BAFF (UniProt Q9Y275 134-285); assay: direct ELISA
[10] = biological target: T8, CD30 ligand (UniProt P32971 63-234); assay: direct ELISA
T8 sequence (looked up): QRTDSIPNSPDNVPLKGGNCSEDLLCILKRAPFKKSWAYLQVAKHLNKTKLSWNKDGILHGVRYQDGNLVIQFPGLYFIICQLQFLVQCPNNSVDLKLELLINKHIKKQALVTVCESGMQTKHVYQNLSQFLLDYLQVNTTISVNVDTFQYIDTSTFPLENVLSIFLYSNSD

[11] = biological target: T9, APRIL (UniProt O75888 105-250); assay: direct ELISA
T9 sequence (looked up): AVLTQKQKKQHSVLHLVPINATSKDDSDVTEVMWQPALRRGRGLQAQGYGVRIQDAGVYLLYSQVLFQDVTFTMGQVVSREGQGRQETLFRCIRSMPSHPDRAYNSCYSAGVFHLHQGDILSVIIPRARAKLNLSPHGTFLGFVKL

[12] = biological target: T10, lymphotoxin a (UniProt P01374 35-205); assay: direct ELISA
T10 construct: also called lymphotoxin alpha
T10 sequence (looked up): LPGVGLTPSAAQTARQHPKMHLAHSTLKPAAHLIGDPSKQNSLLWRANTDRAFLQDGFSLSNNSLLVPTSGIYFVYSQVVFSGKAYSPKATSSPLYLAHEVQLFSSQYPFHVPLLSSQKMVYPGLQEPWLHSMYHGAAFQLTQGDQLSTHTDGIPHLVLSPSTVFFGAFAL

[13] = biological target: T11, human TNF-α (human, UniProt P01375 77-233); assay: assay not stated; rounded figure in the dose-selection text, assay not stated
T11 construct: also called hTNF-α; hTNF

[14] = biological target: T12, mouse TNF (mouse, UniProt P06804 80-235); assay: Biacore SPR
T12 construct: also called murine TNF; rodent TNF (mouse)
T12 sequence (looked up): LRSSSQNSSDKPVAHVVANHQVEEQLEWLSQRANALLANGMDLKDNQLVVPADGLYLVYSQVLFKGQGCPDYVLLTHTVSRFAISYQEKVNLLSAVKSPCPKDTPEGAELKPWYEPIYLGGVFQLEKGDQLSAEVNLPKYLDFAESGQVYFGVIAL

[15] = biological target: T13, rat TNF (rat, UniProt P16599 80-235); assay: Biacore SPR
T13 construct: also called rodent TNF (rat); rat rTNF
T13 sequence (looked up): T12 sequence (looked up) with V22A, V58I, N91S, V96I, I117M, Q130L, F143I, A144T

[16] = biological target: T14, rabbit TNF (rabbit, UniProt P04924 80-235, limits assumed); assay: Biacore SPR
T14 construct: also called rabbit rTNF
T14 sequence (looked up): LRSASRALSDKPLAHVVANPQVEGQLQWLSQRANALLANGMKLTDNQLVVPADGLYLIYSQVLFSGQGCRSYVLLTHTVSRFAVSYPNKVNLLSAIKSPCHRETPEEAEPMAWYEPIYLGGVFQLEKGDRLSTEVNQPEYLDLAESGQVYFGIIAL

[17] = biological target: T11, human TNF-α; assay: Biacore SPR, recombinant antigen, mean of 3 experiments; exponent as printed

T11 sequence (P01375 77-233 limits assumed): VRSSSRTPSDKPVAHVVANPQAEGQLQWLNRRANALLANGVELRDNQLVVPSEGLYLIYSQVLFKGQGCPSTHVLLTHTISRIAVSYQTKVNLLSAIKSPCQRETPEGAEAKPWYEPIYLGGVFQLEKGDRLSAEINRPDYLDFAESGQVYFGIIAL
LIGHT, sequence (O43557 74-240 limits assumed): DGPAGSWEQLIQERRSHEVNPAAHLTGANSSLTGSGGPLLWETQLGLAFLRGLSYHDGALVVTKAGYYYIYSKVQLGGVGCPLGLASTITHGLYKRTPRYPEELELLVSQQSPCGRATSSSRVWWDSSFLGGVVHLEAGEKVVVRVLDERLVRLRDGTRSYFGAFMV
BAFF, sequence (Q9Y275 134-285 limits assumed): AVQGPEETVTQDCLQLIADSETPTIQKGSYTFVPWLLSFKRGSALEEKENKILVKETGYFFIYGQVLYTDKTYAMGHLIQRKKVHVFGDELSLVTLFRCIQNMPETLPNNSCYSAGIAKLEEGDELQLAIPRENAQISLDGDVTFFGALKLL

B1: ABBV-257 anti-human TNF and IL-17 DVD-Ig binding protein (bispecific antibody, human IgG1, kappa, L234A L235A)
heavy: EVQLVQSGAEVKKPGASVKVSCKASGYTFANYGIIWVRQAPGQGLEWMGWINTYTGKPTYAQKFQGRVTMTTDTSTSTAYMELSSLRSEDTAVYYCARKLFTTMDVTDNAMDYWGQGTTVTVSSGGGGSGGGGSEVQLVQSGAEVKKPGSSVKVSCKASGYTFTDYEIHWVRQAPGQGLEWMGVNDPESGGTFYNQKFDGRVTLTADESTSTAYMELSSLRSEDTAVYYCTRYSKWDSFDGMDYWGQGTTVTVSSASTKGPSVFPLAPSSKSTSGGTAALGCLVKDYFPEPVTVSWNSGALTSGVHTFPAVLQSSGLYSLSSVVTVPSSSLGTQTYICNVNHKPSNTKVDKKVEPKSCDKTHTCPPCPAPEAAGGPSVFLFPPKPKDQLMISRTPEVTCVVVDVSHEDPEVKFNWYVDGVEVHNAKTKPREEQYNSTYRVVSVLTVLHQDWLNGKEYKCKVSNKALPAPIEKTISKAKGQPREPQVYTLPPSREEMTKNQVSLTCLVKGFYPSDIAVEWESNGQPENNYKTTPPVLDSDGSFFLYSKLTVDKSRWQQGNVFSCSVLHEALHNHYTQKSLSLSPGK
light: DIQMTQSPSSLSASVGDRVTITCRASQDISQYLNWYQQKPGKAPKLLIYYTSRLQSGVPSRFSGSGSGTDFTLTISSLQPEDFATYFCQQGNTWPPTFGQGTKLEIKRGGSGGGGSGDIQMTQSPSSLSASVGDRVTITCRASSGIISYIDWFQQKPGKAPKRLIYATFDLASGVPSRFSGSGSGTDYTLTISSLQPEDFATYYCRQVGSYPETFGQGTKLEIKRTVAAPSVFIFPPSDEQLKSGTASVVCLLNNFYPREAKVQWKVDNALQSGNSQESVTEQDSKDSTYSLSSTLTLSKADYEKHKVYACEVTHQGLSSPVTKSFNRGEC
modifications: N-linked glycans on the heavy chain at the asparagine commonly modified on IgG1 antibodies (fucosylated biantennary oligosaccharides with 0, 1 or 2 galactose residues)
notes: It says the constant region carries L234A, L235A and also T250Q and M428L; also called Anti-IL-17/TNF DVD-Ig Protein
B1: no binding [1]; no binding [2]; no binding [3]. B1: no binding [4]; no binding [5]; no binding [6]. B1: no binding [7]; no binding [8]; no binding [9]. B1: no binding [10]; no binding [11]; no binding [12]. The Kd [13] was 5 pM, the binding result [14] was “no binding (tested: at concentrations up to 500 nM of rTNF)” and the binding result [15] was “no binding (tested: at concentrations up to 500 nM of rTNF)”. For the same binder, the binding result [16] was “no binding (tested: at concentrations up to 500 nM of rTNF)” and the koff [17] was 1.6e-05 s⁻¹.
